Assay results: patent US20090258363
Like-named read-outs stand apart in the source and are kept apart here.

Assays:
[1] = test system: ZFP-FokI 4-residue ZC linker (synthetic); assay: cleavage_in_vitro
[2] = test system: CCR-5 ZFN (GATGAGGATGAC) (synthetic); assay: cell_activity; conditions: K562, with p32
[3] = test system: ZFP-FokI 10-residue ZC linker (synthetic); assay: cleavage_in_vitro
[4] = test system: ZFP-FokI 2-residue ZC linker (synthetic); assay: cleavage_in_vitro
[5] = test system: 287A ZFP-FokI (cells) (synthetic); assay: cell_activity; conditions: with 296; 0.16 alone, 0.01 donor only
[6] = test system: 287A ZFP-FokI Q486E Q486E (FokI numbering) (synthetic); assay: cell_activity; conditions: with 296 E490K; 0.0 alone
[7] = test system: CCR-5 ZFN (AAACTGCAAAAG) (synthetic); assay: cell_activity; conditions: K562, with p31
[8] = test system: 296S ZFP-FokI E490K E490K (FokI numbering) (synthetic); assay: cell_activity; conditions: with 287 Q486E; 0.01 alone
[9] = test system: 296S ZFP-FokI (cells) (synthetic); assay: cell_activity; conditions: with 287; 0.6 alone, 0.01 donor only

Sequence: CTAGCATTATCCGAGTTCACCACCAACACAACTCGGATAATGCTAG (double strand) [12 bp separation]
- activity [1]: 22 % cleaved

Sequence: GATGAGGATGAC (double strand) [CCR-5 site 1]
- activity (% targeted insertion) [2]: 1

Sequence: CTAGGCATTATCCGAGTTCACCACAACTCGGATAATGACTAG (double strand) [6 bp separation]
- activity [3]: 76 % cleaved
- activity [1]: 95 % cleaved
- activity [4]: 78 % cleaved

Sequence: GGGGTAGCGG (double strand) [287A site]
- activity (% corrected cells) [5]: 1.2
- activity (% corrected cells) [6]: 0.62

Sequence: CTAGCATTATCCGAGTTCAACCACCAACCACACCAACACAACTCGGATAATGCTAG (double strand) [22 bp separation]
- activity [1]: 5 % cleaved

Sequence: CTAGCATTATCCGAGTTACACAACTCGGATAATGCTAG (double strand) [4 bp separation]
- activity [3]: 4 % cleaved
- activity ([1]; Mg, Zn, 37 C): 74 % cleaved
- activity [4]: 74 % cleaved

Sequence: CTAGCATTATCCGAGTTCACCACCAACCACACAACTCGGATAATGCTAG (double strand) [15 bp separation]
- activity [3]: 88 % cleaved
- activity [1]: 97 % cleaved

Sequence: CTAGCATTATCCGAGTTCACCACCAACCACACCAACTCGGATAATGCTAG (double strand) [16 bp separation]
- activity [1]: 100 % cleaved
- activity [4]: 59 % cleaved

Sequence: AAACTGCAAAAG (double strand) [CCR-5 site 2]
- activity (% targeted insertion) [7]: 1

Sequence: CTAGCATTATCCGAGTTCACACAACTCGGATAATGCTAG (double strand) [5 bp separation]
- activity [1]: 92 % cleaved

Sequence: CTAGCATTATCCGAGTTCAACCACCAACCACACCAACACCACCAACTCGGATAATGCTAG (double strand) [26 bp separation]
- activity [1]: 35 % cleaved

Sequence: CTAGCATTATCCGAGTTCAACCACCAACCACACCAACTCGGATAATGCTAG (double strand) [17 bp separation]
- activity [1]: 77 % cleaved

Sequence: GAAGCAGCA (double strand) [296S site]
- activity (% corrected cells) [8]: 0.62
- activity (% corrected cells) [9]: 1.2

Sequence: CTAGCATTATCCGAGTTCACACACACAACTCGGATAATGCTAG (double strand) [9 bp separation]
- activity [1]: 23 % cleaved

Sequence: CTAGCATTATCCGAGTTCACCACACAACTCGGATAATGCTAG (double strand) [8 bp separation]
- activity [3]: 63 % cleaved
- activity [1]: 8 % cleaved

Sequence: CTAGCATTATCCGAGTTCACACACAACTCGGATAATGCTAG (double strand) [7 bp separation]
- activity [1]: 80 % cleaved
